Residue numbers refer to the chain shown, from its start.
Key:
[1] = biological target: T1, LIG1 wild-type (Cy5-labelled) (human, UniProt P18858 1-919); assay: single-molecule TIRF co-localization; tbound 7.0 ± 0.9 s and 0.7 ± 0.1 s; tunbound 61 ± 2 s; 1 nM LIG1; TIRF: 1 mM HEPES pH 7.4, 20 mM NaCl, 0.02% BSA, 0.002% Tween 20, oxygen scavenger (44 mM glucose, glucose oxidase, catalase), 10 mM Trolox, 1 nM LIG1-Cy5, room; conditions: protein: recombinant; tags: 6xHis; Cy5 (NHS ester); label: 5'-biotin on S15; 3'-AF488 on S18; blunt 34-bp duplex with one nick between S15 and S18; 3'-A opposite T at nick
T1 sequence (P18858 whole entry): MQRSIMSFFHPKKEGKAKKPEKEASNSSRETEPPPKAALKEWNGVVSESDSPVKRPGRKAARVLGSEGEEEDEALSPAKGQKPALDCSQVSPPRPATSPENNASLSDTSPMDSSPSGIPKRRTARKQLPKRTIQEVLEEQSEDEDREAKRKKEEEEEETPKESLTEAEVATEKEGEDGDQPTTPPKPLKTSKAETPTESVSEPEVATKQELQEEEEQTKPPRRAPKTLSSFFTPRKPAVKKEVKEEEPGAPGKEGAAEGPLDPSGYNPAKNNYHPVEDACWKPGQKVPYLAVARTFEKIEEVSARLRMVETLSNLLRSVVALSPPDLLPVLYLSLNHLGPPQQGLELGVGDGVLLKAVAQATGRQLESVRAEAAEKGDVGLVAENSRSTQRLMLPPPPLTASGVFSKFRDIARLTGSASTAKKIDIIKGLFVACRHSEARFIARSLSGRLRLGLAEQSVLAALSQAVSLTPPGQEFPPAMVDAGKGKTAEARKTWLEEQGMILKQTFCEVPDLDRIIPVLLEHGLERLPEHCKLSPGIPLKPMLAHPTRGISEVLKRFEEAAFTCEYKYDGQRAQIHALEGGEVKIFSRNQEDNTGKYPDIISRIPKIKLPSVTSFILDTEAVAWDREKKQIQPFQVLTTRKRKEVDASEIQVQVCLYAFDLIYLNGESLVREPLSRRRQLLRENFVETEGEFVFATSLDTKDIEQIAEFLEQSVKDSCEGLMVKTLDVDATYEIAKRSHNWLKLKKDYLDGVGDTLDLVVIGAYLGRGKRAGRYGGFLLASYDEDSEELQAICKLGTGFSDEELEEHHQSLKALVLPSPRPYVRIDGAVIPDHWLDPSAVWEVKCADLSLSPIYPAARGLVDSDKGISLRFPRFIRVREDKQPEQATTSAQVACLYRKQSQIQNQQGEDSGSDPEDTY

[2] = biological target: T1, LIG1 wild-type (Cy5-labelled); assay: single-molecule TIRF co-localization; tunbound 79 ± 5 s; 1 nM LIG1; TIRF: 1 mM HEPES pH 7.4, 20 mM NaCl, 0.02% BSA, 0.002% Tween 20, oxygen scavenger (44 mM glucose, glucose oxidase, catalase), 10 mM Trolox, 1 nM LIG1-Cy5, room; conditions: protein: recombinant; tags: 6xHis; Cy5 (NHS ester); label: 5'-biotin on strand 1; 3'-AF488 on S18; blunt 34-bp duplex with one nick between strand 1 and S18; 3'-8oxoG opposite A at nick
[3] = biological target: LIG1 K845N (Cy5-labelled) (human, UniProt P18858 1-919, K845N); assay: single-molecule TIRF co-localization; long tbound 4 ± 0.7 s; tunbound 113 ± 8 s; similar to its nick binding, mostly nonspecific; 1 nM LIG1; TIRF: 1 mM HEPES pH 7.4, 20 mM NaCl, 0.02% BSA, 0.002% Tween 20, oxygen scavenger (44 mM glucose, glucose oxidase, catalase), 10 mM Trolox, 1 nM LIG1-Cy5, room; conditions: protein: recombinant; tags: 6xHis; Cy5 (NHS ester); label: 5'-biotin and 3'-AF488 on S1; blunt, no nick
LIG1 K845N (Cy5-labelled), sequence (P18858 whole entry K845N): as the sequence (P18858 whole entry) above, with K845N counted along it

B1: nick A:T (dsDNA)
DNA 1: CATGGGCGGCATGAACCA
DNA 2: GAGGCCCATCCTCACC
DNA 3: GGTGAGGATGGGCCTCTGGTTCATGCCGCCCATG
modifications: 5'-phosphate on S18 at nick
B1: binds [1].

B2: nick 8oxoG:A (dsDNA)
DNA 1: CATGGGCGGCATGAACCG
DNA 2: GAGGCCCATCCTCACC
DNA 3: B1 DNA 3 with T17A
modifications: 8-oxo-dG at position 18 of strand 1; 5'-phosphate on S18 at nick
B2: binds [2].

B3: no-nick dsDNA (dsDNA)
DNA 1: CATGGGCGGCATGAACCAGAGGCCCATCCTCACC
DNA 2: B1 DNA 3
B3: binds [3].

Source: PMC12673853, “Impaired nick recognition and ligation efficiency by LIG1 K845N variant linked to Huntington’s disease”
